According to patent US20220242973A1 (Molecular Partners, published 2022):

Tests used:
[1] = target: T1, Human FAP expressed on the cell surface (WI38, CHO-FAP1.9, U87MG cells) (human, UniProt Q12884 1-760); assay: FACS on WI38 cells (FAP on the cell surface), His-tag detected with Penta-His AF647 conjugate, median fluorescence intensity
T1 construct: whole, on cells; Endogenous on WI38 and U87MG cells; from a human FAP cDNA (OriGene) in CHO-FAP1.9 cells; also called hFAP; FAP+ cells
T1 sequence (looked up): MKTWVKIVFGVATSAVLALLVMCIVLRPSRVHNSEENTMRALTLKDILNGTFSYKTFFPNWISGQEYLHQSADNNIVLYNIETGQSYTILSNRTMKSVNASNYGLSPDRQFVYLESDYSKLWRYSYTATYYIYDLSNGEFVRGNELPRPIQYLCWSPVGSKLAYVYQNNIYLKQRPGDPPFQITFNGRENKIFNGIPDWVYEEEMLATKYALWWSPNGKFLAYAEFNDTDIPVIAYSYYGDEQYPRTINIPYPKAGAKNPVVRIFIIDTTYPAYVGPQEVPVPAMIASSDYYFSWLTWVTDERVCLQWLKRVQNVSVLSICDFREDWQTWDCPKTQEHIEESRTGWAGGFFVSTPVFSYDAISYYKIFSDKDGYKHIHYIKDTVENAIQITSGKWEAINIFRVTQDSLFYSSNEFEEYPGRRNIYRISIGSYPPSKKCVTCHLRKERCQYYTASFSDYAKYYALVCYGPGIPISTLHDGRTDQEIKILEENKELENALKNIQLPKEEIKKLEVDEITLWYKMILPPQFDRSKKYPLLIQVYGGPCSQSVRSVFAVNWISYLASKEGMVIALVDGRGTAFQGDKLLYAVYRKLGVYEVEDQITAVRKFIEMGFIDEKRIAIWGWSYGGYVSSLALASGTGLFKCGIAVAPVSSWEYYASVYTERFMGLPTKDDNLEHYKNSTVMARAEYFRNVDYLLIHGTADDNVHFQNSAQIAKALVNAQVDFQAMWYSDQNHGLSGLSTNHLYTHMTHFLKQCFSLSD
Method: (§1) In order to determine whether the fusion of a biologically active molecule to a FAP-specific ankyrin repeat domain affects the ability of the molecule to specifically recognize and bind to FAP expressed on the surface of cells, the binding of selected ankyrin repeat fusion proteins to FAP-expressing cells was tested. U87 MG cells and WI38 cells are known to express FAP on the cell surface and they were chosen as representative cells for these experiments. FAP expression on the U87 MG and WI38 cells was confirmed by FACS analysis (data not shown).
(§2) Using multi-well plates, 40,000 cells (either U87MG or WI38) were added per well in 50 μl of PBS. 50 μl of appropriate dilutions (2× dilution steps) of ankyrin repeat fusion protein (DARPin® protein #40 or DARPin® protein #41) was then added to the cells and incubated for 30 minutes on ice. After the ankyrin repeat fusion protein-binding reaction, cells were washed twice with PBS. Direct immunofluorescent detection of the His-tagged ankyrin repeat fusion proteins using Penta-His AF647 conjugate (QIAgen) and determination of live cells using LIVE/DEAD™ Fixable Green Dead Cell Stain Kit (ThermoFisher) were then performed together in one step. […] Acquisition and FACS analysis, including the determination of median fluorescence intensity (MFI), were done within 5 days after staining using an AttuneNxT instrument. […]

[2] = target: T1, Human FAP expressed on the cell surface …; assay: FACS on U87MG cells (FAP on the cell surface), His-tag detected with Penta-His AF647 conjugate, median fluorescence intensity
Method: as §1, §2

EC50 (read off the curve) [1]: ~2 nM
EC50 (read off the curve) [2]: ~2 nM
B1: DARPin® protein #40 (designed binder)
chain: MRGSHHHHHHGSDLGKKLLEAARAGQDDEVRELLKAGADVNAKDYFSHTPLHLAARNGHLKIVEVLLKAGADVNAKDFAGKTPLHLAANEGHLEIVEVLLKAGADVNAQDIFGKTPADIAADAGHEDIAEVLQKAAGSPTPTPTTPTPTPTTPTPTPTGSDLGKKLLEAARAGQDDEVRILLAAGADVNAKDVLGWTPLHLAAFEGHLEIVEVLLKAGADVNAKDKKGWTPLQLAARTGHLEIVEVLLKAGADVNAKDHIGATPLHLAAWQGHPEIVEVLLKAGADVNAQDKSGKTPADLAADAGHEDIAEVLQKAA
notes: Fusion of a serum albumin-specific and a FAP-specific ankyrin repeat domain
